Assay results taken from the supplement of paper PMC6757056.
± gives the standard deviation of the averaged measurements.

B1: library; a variant is named by its letters at N, in order (parent)
chain: GCUGUCACCGGUGCUUGGUACGUUAUAUUCAGCCGGUCUGAUGAGUCUNNNNNNAGACGAAACAGC

Legend:
(6R,S)-folinic acid [1] = variants of: B1; experiment: normalized RNA/DNA level without ligand (relative to sTRSVctl = 100) (log10 (% of sTRSVctl)); HEK293T overexpressing SLC46A1; higher = less ribozyme self-cleavage, higher mRNA level; settings: without (6R,S)-folinic acid; ligand present: no
Method in brief: (§1)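 Ribozyme switch library plasmids linked to reporters were introduced into HEK293T cells at 4 µg per 6-well well, with ligand, if any, added 1 h before. Total RNA was extracted with EDTA 72 h later, reverse-transcribed, amplified, barcoded and sequenced. RNA level was computed from RNA over DNA reads relative to a spiked-in non-cleaving sequence or the top sequences, then scaled and log-transformed. The top set was 25 sequences, values were ×100 and log10, and the cutoff was ≥100 DNA reads.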

(6R,S)-folinic acid [2] = variants of: B1; experiment: normalized RNA/DNA level with ligand (relative to sTRSVctl = 100) (log10 (% of sTRSVctl)); HEK293T overexpressing SLC46A1; ligand concentration (+) RNA-Seq: 6 mM; higher = less ribozyme self-cleavage, higher mRNA level; settings: with (6R,S)-folinic acid; ligand present: yes
Method in brief: as §1

Variant | normalized RNA/DNA level without ligand (log10) ((6R,S)-folinic acid [1]) | normalized RNA/DNA level with ligand (log10) ((6R,S)-folinic acid [2])
GCUGUCACCGGUGCUUGGUACGUUAUAUUCAGCCGGUCUGAUGAGUCUCUGGUCAGACGAAACAGC [CUGGUC] | 2.057 ± 0.0038 | 2.04 ± 0.044
GCUGUCACCGGUGCUUGGUACGUUAUAUUCAGCCGGUCUGAUGAGUCUCUGGUGAGACGAAACAGC [CUGGUG] | 1.982 ± 0.0025 | 2.04 ± 0.037
GCUGUCACCGGUGCUUGGUACGUUAUAUUCAGCCGGUCUGAUGAGUCUAUGUAUAGACGAAACAGC [AUGUAU] | 1.94 ± 0.025 | 2.03 ± 0.027
GCUGUCACCGGUGCUUGGUACGUUAUAUUCAGCCGGUCUGAUGAGUCUAUGUACAGACGAAACAGC [AUGUAC] | 1.959 ± 0.01 | 1.98 ± 0.025
GCUGUCACCGGUGCUUGGUACGUUAUAUUCAGCCGGUCUGAUGAGUCUAUGUAAAGACGAAACAGC [AUGUAA] | 1.938 ± 0.011 | 2 ± 0.023
GCUGUCACCGGUGCUUGGUACGUUAUAUUCAGCCGGUCUGAUGAGUCUCUGUCAAGACGAAACAGC [CUGUCA] | 2.033 ± 0.011 | 2.07 ± 0.039
GCUGUCACCGGUGCUUGGUACGUUAUAUUCAGCCGGUCUGAUGAGUCUCUGUCGAGACGAAACAGC [CUGUCG] | 2 ± 0.031 | 2.06 ± 0.065
GCUGUCACCGGUGCUUGGUACGUUAUAUUCAGCCGGUCUGAUGAGUCUCUGUCUAGACGAAACAGC [CUGUCU] | 2.037 ± 0.0082 | 2.04 ± 0.034
GCUGUCACCGGUGCUUGGUACGUUAUAUUCAGCCGGUCUGAUGAGUCUCUGUCCAGACGAAACAGC [CUGUCC] | 2.059 ± 0.0043 | 2.043 ± 0.017
GCUGUCACCGGUGCUUGGUACGUUAUAUUCAGCCGGUCUGAUGAGUCUUUGUGAAGACGAAACAGC [UUGUGA] | 1.96 ± 0.0028 | 2.04 ± 0.031
GCUGUCACCGGUGCUUGGUACGUUAUAUUCAGCCGGUCUGAUGAGUCUUUGUCUAGACGAAACAGC [UUGUCU] | 2.053 ± 0.0052 | 2.09 ± 0.022
GCUGUCACCGGUGCUUGGUACGUUAUAUUCAGCCGGUCUGAUGAGUCUUUGUCCAGACGAAACAGC [UUGUCC] | 2.008 ± 0.0064 | 2.045 ± 0.02
GCUGUCACCGGUGCUUGGUACGUUAUAUUCAGCCGGUCUGAUGAGUCUUUGUCGAGACGAAACAGC [UUGUCG] | 1.94 ± 0.032 | 2.03 ± 0.034
GCUGUCACCGGUGCUUGGUACGUUAUAUUCAGCCGGUCUGAUGAGUCUUUGUCAAGACGAAACAGC [UUGUCA] | 1.976 ± 0.015 | 2.042 ± 0.0095
GCUGUCACCGGUGCUUGGUACGUUAUAUUCAGCCGGUCUGAUGAGUCUCUGGGUAGACGAAACAGC [CUGGGU] | 2.025 ± 0.02 | 2.032 ± 0.017
GCUGUCACCGGUGCUUGGUACGUUAUAUUCAGCCGGUCUGAUGAGUCUGUGGGUAGACGAAACAGC [GUGGGU] | 1.98 ± 0.022 | 2 ± 0.045
GCUGUCACCGGUGCUUGGUACGUUAUAUUCAGCCGGUCUGAUGAGUCUCUGUGCAGACGAAACAGC [CUGUGC] | 2.01 ± 0.05 | 2.02 ± 0.028
GCUGUCACCGGUGCUUGGUACGUUAUAUUCAGCCGGUCUGAUGAGUCUCUGUGAAGACGAAACAGC [CUGUGA] | 2.028 ± 0.0096 | 2.04 ± 0.035
GCUGUCACCGGUGCUUGGUACGUUAUAUUCAGCCGGUCUGAUGAGUCUCUGUAGAGACGAAACAGC [CUGUAG] | 1.925 ± 0.016 | 2.02 ± 0.041
GCUGUCACCGGUGCUUGGUACGUUAUAUUCAGCCGGUCUGAUGAGUCUCUGUACAGACGAAACAGC [CUGUAC] | 1.992 ± 0.017 | 2.013 ± 0.013
GCUGUCACCGGUGCUUGGUACGUUAUAUUCAGCCGGUCUGAUGAGUCUCUGUAAAGACGAAACAGC [CUGUAA] | 1.958 ± 0.018 | 2.02 ± 0.037
